Experimental data published in US7387779B2, “Anti-angiogenic proteins and fragments and methods of use thereof” (Beth Israel Deaconess Medical Center, priority 1998, dated 2008).

B1: Tumstatin: NC1 domain of the α3 chain of type IV collagen, residues 1-244 (SEQ ID NO:10) (protein, listed as Homo sapiens)
chain: GLKGKRGDSGSPATWTTRGFVFTRHSQTTAIPSCPEGTVPLYSGFSFLFVQGNQRAHGQDLGTLGSCLQRFTTMPFLFCNVNDVCNFASRNDYSYWLSTPALMPMNMAPITGRALEPYISRCTVCEGPAIAIAVHSQTTDIPPCPHGWISLWKGFSFIMFTSAGSEGTGQALASPGSCLEEFRASPFLECHGRGTCNYYSNSYSFWLASLNPERMFRKPIPSTVKAGELEKIISRCQVCMKKRH
B2: Tumstatin-44-131: residues 44 to 131 of full-length Tumstatin (SEQ ID NO:33) (protein)
chain: FSFLFVQGNQRAHGQDLGTLGSCLQRFTTMPFLFCNVNDVCNFASRNDYSYWLSTPALMPMNMAPITGRALEPYISRCTVCEGPAIAI
modifications: Tumstatin-45-132 (amino acids 45-132 of SEQ ID NO10)
B3: Canstatin: NC1 domain of the α2 chain of Type IV collagen (SEQ ID NO:6) (protein, listed as Homo sapiens)
chain: VSIGYLLVKHSQTDQEPMCPVGMNKLWSGYSLLYFEGQEKAHNQDLGLAGSCLARFSTMPFLYCNPGDVCYYASRNDKSYWLSTTAPLPMMPVAEDEIKPYISRCSVCEAPAIAIAVHSQDVSIPHCPAGWRSLWIGYSFLMHTAAGDEGGGQSLVSPGSCLEDFRATPFIECNGGRGTCHYYANKYSFWLTTIPEQSFQGSPSADTLKAGLIRTHISRCQVCMKNL
B4: endostatin: tumor associated angiogenesis inhibitor used as comparator (protein, UniProt P39060 1572-1754, looked up)
Endostatin: HSHRDFQPVLHLVALNSPLSGGMRGIRGADFQCFQQARAVGLAGTFRAFLSSRLQDLYSIVRRADRAAVPIVNLKDELLFPSWEALFSGSEGPLKPGARIFSFDGKDVLRHPTWPQKSVWHGSDPNGRRLTESYCETWRTEAPSATGQASSLLGGRLLGQSAASCHHAYIVLCIENSFMTASK
modifications: Endostatin

Assays:
[1] = system: 786-O (renal carcinoma) cells; test: Proliferation of control cells, 3H-thymidine incorporation; format: cell-based, human; details: non-endothelial control; Canstatin up to 40 mg/ml, Tumstatin up to 20 mg/ml
Experimental: (§1) C-PAE cells were grown to confluence in DMEM with 10% fetal calf serum (FCS) and kept contact inhibited for 48 hours. Control cells were 786-O (renal carcinoma) cells, PC-3 cells, HPEC cells, and A-498 (renal carcinoma) cells. Cells were harvested with trypsinization (Life Technologies/Gibco BRL, Gaithersburg, Md., USA) at 37° C. for five minutes. […] The cells were incubated for 24 hours at 37° C. with 5% CO2 and 95% humidity. Medium was removed and replaced with DMEM containing 0.5% FCS and 3 ng/ml bFGF (R&D Systems, Minneapolis, Minn., USA). Unstimulated controls received no bFGF. […] All wells received 1 μCurie of ^3H-thymidine at the time of treatment. After 24 hours, medium was removed and the wells were washed with PBS. Cells were extracted with 1N NaOH and added to a scintillation vial containing 4 ml of ScintiVerse II (Fisher Scientific, Pittsburgh, Pa., USA) solution. Thymidine incorporation was measured using a scintillation counter. The results are shown in FIGS. 3A and 3B, which are a pair of graphs showing incorporation of ^3H-thymidine into C-PAE cells treated with varying amounts of Arresten (FIG. 3A) or endostatin (FIG. 3B). Arresten appeared to inhibit thymidine incorporation in C-PAE as well as did endostatin. Behavior of control cells treated with Arresten and endostatin is also shown in FIG. 4A, 4B, 4C, and 4D, with Arresten having little effect on 786-O cells (FIG. 4A), PC-3 cells (FIG. 4B), or HPEC cells (FIG. 4C). Endostatin had little effect on A-498 cells (FIG. 4D). All groups in FIGS. 3 and 4 represent triplicate samples. […] (C-PAE) cells were grown to confluence in DMEM with 10% fetal calf serum (FCS) and kept contact inhibited for 48 hours. Cells were harvested by trypsinization (Life Technologies/Gibco BRL, Gaithersberg, Md., USA) at 37° C. for 5 minutes. […] The cells were incubated for 24 hours at 37° C. C. with 5% CO2 and 95% humidity. Medium was removed, and replaced with DMEM containing 0.5% FCS (unstimulated) or 10% FCS (stimulated and treated cells). 786-O, PC-3 and HEK 293 cells served as controls and were also grown to confluency, trypsinized and plated in the same manner. Cells were treated with concentrations of Canstatin or endostatin ranging from 0.025 to 40 mg/ml in triplicate. In thymidine incorporation experiments, all wells received […] of ^3H-thymidine at the time of treatment. After 24 hours, medium was removed and the wells were washed 3 times with PBS. Radioactivity was extracted with 1N NaOH and added to a scintillation vial containing 4 ml of ScintiVerse II (Fisher Scientific, Pittsburgh, Pa., USA) solution. Thymidine incorporation was measured using a scintillation counter. […]

[2] = system: PC-3 cells; test: as above; format: cell-based, human; details: non-endothelial control; Canstatin up to 40 mg/ml, Tumstatin up to 20 mg/ml
Experimental: as §1

[3] = system: MLEC β3+/+; test: Protein synthesis and cap-dependent translation in wild-type mouse lung endothelial cells; format: cell-based; details: 4.5 μM; rapamycin 100 ng/ml
Source text: (§2) Therefore, to evaluate the effect of tumstatin peptides on cap-dependent and independent translation, endothelial cells were isolated from lungs of 12-week-old mice that were deficient in the expression of αvβ3 integrin (i.e., 3 integrin-deficient mice), and also their wild-type counterparts (Hodivala-Dilke, K. M. et al., 1999, J. Clin. Invest. 103:229-38). Briefly, ICAM-2 expressing MLEC were enriched using rat anti-mouse ICAM-2 (# 01800D, PharMingen, San Diego, Calif., USA) conjugated to magnetic beads (Dynabeads M-450, Dynal, Oslo, Norway). MLEC were maintained in 40% Ham's F-12,40% DME-Low Glucose, 20% FBS supplemented with heparin, endothelial mitogen (Biomedical Technologies, Inc., Cambridge, Mass., USA), glutamine and penicillin/streptomycin. Wild-type and β3-integrin-deficient mouse embryonic fibroblasts were prepared (Hodivala-Dilke, K. M. et al., 1999, J. Clin. Invest. 103:229-38). MEFs were maintained in DMEM containing 10% FBS. MLEC were characterized for homogeneity by morphological observations and by immunofluorescence staining for endothelial-specific markers. Cells between passage 3 and 6 were used for the experiments.

[4] = system: MLEC β3−/−; test: Protein synthesis and cap-dependent translation in β3-integrin deficient endothelial cells; format: cell-based, mouse; details: 4.5 μM; rapamycin 100 ng/ml
Source text: as §2

[5] = system: PC-3 tumors; test: PC-3 xenograft in athymic nude NCRNU mice (Example 46); format: in vivo
Experimental: Tumstatin-44-131 was also tested for its ability to suppress tumor growth. Male athymic nude NCRNU mice, of 5-6 weeks of age and about 25 g, were implanted with […] approximately 2×10^6 PC-3 (prostate cancer carcinoma) cells into the dorsal subcutis. […] The tumors were allowed to grow to about 50 mm^3, and animals were then pair-matched into groups of 6 mice. Initial doses of protein or vehicle (PBS, control) were given on the day of pair-matching (Day 1). Tumstatin-44-131, Tum-5-125-C-A, or human endostatin in sterile PBS was intraperitoneally injected daily b.i.d. at doses ranging from 1 to 20 mg/kg for 20 days. Control animals received injection of PBS vehicle. In one treatment, continuous subcutaneous delivery of Tumstatin-44-131 was done using surgically implanted Alzet mini-pumps. The mice were weighed twice weekly, and tumor measurements were taken, starting on Day 1. Estimated mean tumor volumes were calculated, and at Day 21, the mice were weighed, sacrificed, and their tumors excised and examined by light microscopy and CD31 immunostaining. The mean treated tumor weight was divided by the mean control tumor weight was subtracted from one, and expressed as a percentage to give the tumor growth inhibition for each group.

Molecule	effect on proliferation [1]	effect on proliferation [2]	protein synthesis / cap-dependent translation in control (β3+/+) endothelial cells [3]	cap-dependent protein synthesis in αvβ3 integrin deficient (β3−/−) endothelial cells [4]	tumor growth inhibition ([5]; 1 mg/kg i.p. b.i.d., 20 days)	tumor growth inhibition ([5]; continuous delivery via Alzet mini-pump, 1 mg/kg over 24 hours)	tumor growth inhibition ([5]; 20 mg/kg b.i.d., bolus injection)
B1	no significant anti-proliferative effect	no significant anti-proliferative effect	inhibited protein synthesis	did not have any effect	–	–	–
B2	–	–	–	–	74.1%	70.1%	–
B3	No significant effect	No significant effect	–	–	–	–	–
B4	–	–	did not exhibit this property	did not exhibit this property	–	–	no significant tumor growth inhibition
